Where two headings read alike, the source gives them in different places.
Assays:
[1] = molecular target: T1, ILT-2_6xHis recombinant protein (human, UniProt Q8NHL6 24-458); assay: SPR, antibody captured on Protein-A, soluble ILT2 analyte; 1:1 Binding
T1 construct: monomers purified by SEC; also called recombinant 6xHIS tagged ILT2; recombinant human ILT2 proteins
Procedure: (§1) Measurements were performed on a Biacore T200 apparatus (Biacore GE Healthcare) at 25° C. In all Biacore experiments HBS-EP+(Biacore GE Healthcare) and NaOH 10 mM served as running buffer and regeneration buffer respectively. Sensorgrams were analyzed with Biacore T100 Evaluation software. Protein-A was purchased from (GE Healthcare). Human ILT2 recombinant proteins were cloned, produced and purified at Innate Pharma. Protein-A proteins were immobilized covalently to carboxyl groups in the dextran layer on a Sensor Chip CM5. The chip surface was activated with EDC/NHS (N-ethyl-N′-(3-dimethylaminopropyl) carbodiimidehydrochloride and N-hydroxysuccinimide (Biacore GE Healthcare)). Protein-A was diluted to 10 μg/ml in coupling buffer (10 mM acetate, pH 5.6) and injected until the appropriate immobilization level was reached (i.e. 600 RU). Deactivation of the remaining activated groups was performed using 100 mM ethanolamine pH 8 (Biacore GE Healthcare). […] For blank subtraction, cycles were performed again replacing ILT2 proteins with running buffer. The monovalent affinity analysis was conducted following a regular Capture-Kinetic protocol as recommended by the manufacturer (Biacore GE Healthcare kinetic wizard). Seven serial dilutions of human ILT2 proteins, ranging from 1.95 nM to 250 nM were sequentially injected over the captured antibodies and allowed to dissociate for 10 min before regeneration. The entire sensorgram sets were fitted using the 1:1 kinetic binding model or two state reaction model, as a function of the profile of the curves.

[2] = molecular target: T2, anchored ILT2 D2-D3 domain protein (human, UniProt Q8NHL6 122-321); assay: flow cytometry, CHO cells with anchored ILT2 domain proteins
T2 construct: on CHO cells; the entry includes leader remnant, V5 tag and CD24 GPI anchor signal

[3] = molecular target: T3, anchored ILT2 D2-D3-D4 domain protein (human, UniProt Q8NHL6 122-650); assay: as above
T3 construct: on CHO cells; the entry includes leader remnant, V5 tag, and the ILT2 transmembrane and cytoplasmic parts

[4] = molecular target: T4, anchored ILT2 D3 domain protein (human); assay: as above
T4 construct: on CHO cells; the entry includes leader remnant, V5 tag and CD24 GPI anchor signal

[5] = molecular target: T5, anchored ILT2 D2 domain protein (human); assay: as above
T5 construct: on CHO cells; the entry includes leader remnant, V5 tag and CD24 GPI anchor signal

[6] = molecular target: T6, anchored ILT2 D4 domain protein (human, UniProt Q8NHL6 322-650); assay: as above
T6 construct: on CHO cells; the entry includes leader remnant, V5 tag, and the ILT2 transmembrane and cytoplasmic parts

[7] = molecular target: T7, anchored ILT2 D3-D4 domain protein (human, UniProt Q8NHL6 223-650); assay: as above
T7 construct: on CHO cells; the entry includes leader remnant, V5 tag, and the ILT2 transmembrane and cytoplasmic parts

ILT2 mutant 2 [8] = molecular target: T8, ILT2 mutant 2 (human, UniProt Q8NHL6 24-650); assay: flow cytometry, ILT2 point mutants
T8 construct: transfected in HEK293T cells; also called M2

[9] = molecular target: T9, biotinylated BirA-tagged ILT2 protein tetramerised on APC-conjugated streptavidin (human, UniProt Q8NHL6 24-458, limits assumed, 1 biotin molecule per ILT2 protein (BirA tag)); assay: flow cytometry blocking assay: ILT2-streptavidin-APC complexes pre-incubated with antibody, then added to WIL2-NS cells expressing HLA-A2; blocked ligand HLA-A2
T9 construct: ratio 1 streptavidin per 4 ILT2 protein; streptavidin-APC not written as a chain; also called ILT2-SA tetramers; recombinant biotinylated ILT2

[10] = molecular target: T10, human ILT6 (LILRA3) on CHO cells (human, UniProt Q8N6C8 24-434); assay: flow cytometry, CHO transfectants
T10 construct: also called CHO ILT6 cell line; human ILT-6 polypeptide

ILT2 mutant 2 [11] = molecular target: T8, ILT2 mutant 2; assay: flow cytometry titration on HEK293T cells transfected with ILT2 mutant 2
[12] = molecular target: T9, biotinylated BirA-tagged ILT2 protein …; assay: flow cytometry blocking assay: ILT2-streptavidin-APC complexes pre-incubated with antibody, then added to K562 cells expressing HLA-G; blocked ligand HLA-G
[13] = molecular target: T11, human ILT2 on primary NK cells (human, UniProt Q8NHL6 24-650); assay: flow cytometry, primary NK cells
T11 construct: whole, on cells

ILT2 mutant 1 = molecular target: T12, ILT2 mutant 1 (human, UniProt Q8NHL6 24-650); assay: flow cytometry titration on HEK293T cells transfected with ILT2 mutant 1
T12 construct: transfected in HEK293T cells; also called M1

[14] = molecular target: T4, anchored ILT2 D3 domain protein; assay: flow cytometry on CHO cells expressing the anchored ILT2 D3 domain protein (SEQ ID NO: 48); stacked histograms, axis without numbers, no control histogram
[15] = molecular target: T13, human ILT2 (LILRB1) expressed at the surface of transfected cells (human, UniProt Q8NHL6 24-650); assay: flow cytometry, CHO-ILT2 cells
T13 construct: also called CHO-ILT2; CHO ILT2 cell line
Procedure: Cells were incubated with various concentrations of unlabeled anti-ILT2 antibodies from 30 μg/ml to 5×10-⁴ μg/ml, for 30 minutes at 4° C. After washes with staining buffer, cells were incubated for 30 min at 4° C. with Goat anti-human H+L AF488 secondary antibody (Jackson Immunoresearch #109-546-088) or Goat anti-mouse H+L AF488 secondary antibody for commercially available antibodies (Jackson Immuoresearch #115-545-146). Fluorescence was measured on an Accury C6 flow cytometer equipped with an HTFC plate loader.

[16] = molecular target: T1, ILT-2_6xHis recombinant protein; assay: SPR, antibody captured on Protein-A, soluble ILT2 analyte
Procedure: as §1

[17] = molecular target: T11, human ILT2 on primary NK cells; assay: cell-based or functional assay
[18] = molecular target: T14, human ILT7 (LILRA4) on CHO cells (human, UniProt P59901 28-494); assay: flow cytometry, CHO transfectants
T14 construct: also called CHO ILT7 cell line

[19] = molecular target: T15, human ILT1 (LILRA2) on CHO cells (human, UniProt Q8N149 24-475); assay: flow cytometry, CHO transfectants
T15 construct: also called CHO ILT1 cell line

[20] = molecular target: T16, human ILT5 (LILRB3) on CHO cells (human, UniProt O75022 24-626); assay: flow cytometry, CHO transfectants
T16 construct: also called CHO ILT5 cell line

[21] = molecular target: T17, human ILT3 (LILRB4) on CHO cells (human, UniProt Q8NHJ6 24-443); assay: flow cytometry, CHO transfectants
T17 construct: also called CHO ILT3 cell line

[22] = molecular target: T18, human ILT4 (LILRB2) on CHO cells (human, UniProt Q8N423 23-597); assay: flow cytometry, CHO transfectants
T18 construct: also called CHO ILT4 cell line

[23] = molecular target: T19, human ILT8 (LILRA6) on CHO cells (human, UniProt Q6PI73 24-477); assay: flow cytometry, CHO transfectants
T19 construct: also called CHO ILT8 cell line

[24] = molecular target: T13, human ILT2 (LILRB1) expressed at the …; assay: flow cytometry titration on HEK293T cells transfected with wild-type ILT2
[25] = molecular target: T6, anchored ILT2 D4 domain protein; assay: flow cytometry on CHO cells expressing the anchored ILT2 D4 domain protein (SEQ ID NO: 49); stacked histograms, axis without numbers
ILT2 mutant 4-1 = molecular target: T20, ILT2 mutant 4-1 (human, UniProt Q8NHL6 24-650); assay: flow cytometry titration on HEK293T cells transfected with ILT2 mutant 4-1
T20 construct: transfected in HEK293T cells

Mutant D4-4 = molecular target: T21, Mutant D4-4; assay: flow cytometry titration on HEK293T cells transfected with ILT2 mutant 4-4
T21 construct: also called ILT2 mutant 4-4; mutant 4-4

[26] = molecular target: T22, anchored ILT2 D1-D2-D3 domain protein (human, UniProt Q8NHL6 24-321); assay: flow cytometry, CHO cells with anchored ILT2 domain proteins
T22 construct: on CHO cells; the entry includes leader remnant, V5 tag and CD24 GPI anchor signal

[27] = molecular target: T23, anchored ILT2 D1-D2 domain protein (human, UniProt Q8NHL6 24-222); assay: as above
T23 construct: on CHO cells; the entry includes leader remnant, V5 tag and CD24 GPI anchor signal

ILT2 mutant 4-2 = molecular target: T24, ILT2 mutant 4-2 (human, UniProt Q8NHL6 24-650); assay: flow cytometry titration on HEK293T cells transfected with ILT2 mutant 4-2
T24 construct: transfected in HEK293T cells

[28] = molecular target: T13, human ILT2 (LILRB1) expressed at the …; assay: flow cytometry titration on HEK293T cells transfected with wild-type ILT2; remark: listed apart in the source
Mutant D4-1B = molecular target: T25, Mutant D4-1B; assay: flow cytometry titration on HEK293T cells transfected with ILT2 mutant 4-1b
T25 construct: read as S304F; also called ILT2 mutant 4-1b; mutant 4-1b

ILT2 mutant 4-5 = molecular target: T26, ILT2 mutant 4-5 (human, UniProt Q8NHL6 24-650); assay: flow cytometry titration on HEK293T cells transfected with ILT2 mutant 4-5
T26 construct: transfected in HEK293T cells

[29] = molecular target: T27, anchored ILT2 D1 domain protein (human); assay: flow cytometry on CHO cells expressing the anchored ILT2 D1 domain protein (SEQ ID NO: 46); stacked histograms, axis without numbers
T27 construct: on CHO cells; the entry includes leader remnant, V5 tag and CD24 GPI anchor signal

T13 sequence (Q8NHL6 24-650): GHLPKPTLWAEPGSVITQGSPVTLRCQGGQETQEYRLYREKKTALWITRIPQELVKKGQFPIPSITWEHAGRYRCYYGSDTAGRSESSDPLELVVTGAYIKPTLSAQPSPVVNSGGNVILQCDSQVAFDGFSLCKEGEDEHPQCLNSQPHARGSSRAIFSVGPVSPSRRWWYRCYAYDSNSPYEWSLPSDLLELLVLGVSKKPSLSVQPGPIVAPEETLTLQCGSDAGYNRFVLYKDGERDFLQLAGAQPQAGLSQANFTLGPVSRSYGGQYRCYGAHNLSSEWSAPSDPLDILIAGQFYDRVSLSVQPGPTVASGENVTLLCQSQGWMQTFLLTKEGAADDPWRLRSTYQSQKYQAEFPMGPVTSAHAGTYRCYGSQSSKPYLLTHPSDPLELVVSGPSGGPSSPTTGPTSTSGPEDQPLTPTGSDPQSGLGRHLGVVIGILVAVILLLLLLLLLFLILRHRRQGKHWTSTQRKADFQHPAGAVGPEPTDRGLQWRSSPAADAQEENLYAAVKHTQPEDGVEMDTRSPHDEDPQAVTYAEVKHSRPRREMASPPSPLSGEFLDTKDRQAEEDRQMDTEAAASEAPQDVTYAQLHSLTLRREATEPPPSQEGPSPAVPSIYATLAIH
T11 sequence (Q8NHL6 24-650): as above
T1 sequence (Q8NHL6 other isoform, or with tags, fused parts or gaps limits assumed): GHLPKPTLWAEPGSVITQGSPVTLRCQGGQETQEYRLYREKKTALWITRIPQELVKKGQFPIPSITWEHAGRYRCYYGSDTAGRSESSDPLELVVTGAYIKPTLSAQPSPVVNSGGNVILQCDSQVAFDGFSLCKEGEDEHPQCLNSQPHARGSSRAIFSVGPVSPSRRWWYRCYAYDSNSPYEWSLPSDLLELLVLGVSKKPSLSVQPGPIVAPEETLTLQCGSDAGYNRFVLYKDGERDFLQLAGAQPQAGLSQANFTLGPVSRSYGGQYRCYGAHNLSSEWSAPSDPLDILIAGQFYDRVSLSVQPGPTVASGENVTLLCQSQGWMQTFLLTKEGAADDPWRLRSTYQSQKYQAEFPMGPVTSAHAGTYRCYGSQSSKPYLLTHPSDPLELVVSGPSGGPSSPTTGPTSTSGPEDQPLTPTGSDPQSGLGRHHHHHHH
T2 sequence (Q8NHL6 other isoform, or with tags, fused parts or gaps limits assumed): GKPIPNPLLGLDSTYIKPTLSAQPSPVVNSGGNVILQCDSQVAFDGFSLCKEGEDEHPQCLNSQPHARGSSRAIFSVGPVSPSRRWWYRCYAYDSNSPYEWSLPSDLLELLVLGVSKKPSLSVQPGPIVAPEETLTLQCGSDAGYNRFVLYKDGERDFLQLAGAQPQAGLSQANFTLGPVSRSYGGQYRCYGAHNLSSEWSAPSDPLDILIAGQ
T4 sequence (chain, as listed by the source limits assumed): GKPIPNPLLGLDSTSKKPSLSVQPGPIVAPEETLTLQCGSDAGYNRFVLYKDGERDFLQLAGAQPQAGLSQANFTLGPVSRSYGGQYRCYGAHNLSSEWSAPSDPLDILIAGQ
T5 sequence (chain, as listed by the source limits assumed): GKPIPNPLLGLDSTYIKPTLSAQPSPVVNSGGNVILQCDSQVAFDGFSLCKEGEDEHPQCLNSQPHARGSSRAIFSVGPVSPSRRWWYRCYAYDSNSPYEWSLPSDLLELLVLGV
T9 sequence (Q8NHL6 24-458 limits assumed): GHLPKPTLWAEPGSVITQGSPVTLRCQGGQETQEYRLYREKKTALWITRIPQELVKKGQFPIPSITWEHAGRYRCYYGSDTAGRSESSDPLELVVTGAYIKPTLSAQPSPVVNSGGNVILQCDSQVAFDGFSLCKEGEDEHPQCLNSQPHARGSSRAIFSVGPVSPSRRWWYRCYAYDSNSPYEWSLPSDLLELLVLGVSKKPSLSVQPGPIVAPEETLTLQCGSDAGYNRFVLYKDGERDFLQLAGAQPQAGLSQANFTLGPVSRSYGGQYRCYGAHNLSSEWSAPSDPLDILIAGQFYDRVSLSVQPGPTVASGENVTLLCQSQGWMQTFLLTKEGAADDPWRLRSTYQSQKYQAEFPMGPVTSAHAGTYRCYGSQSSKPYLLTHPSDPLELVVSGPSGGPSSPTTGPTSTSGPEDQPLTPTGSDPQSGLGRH
T10 sequence (Q8N6C8 other isoform, or with tags, fused parts or gaps): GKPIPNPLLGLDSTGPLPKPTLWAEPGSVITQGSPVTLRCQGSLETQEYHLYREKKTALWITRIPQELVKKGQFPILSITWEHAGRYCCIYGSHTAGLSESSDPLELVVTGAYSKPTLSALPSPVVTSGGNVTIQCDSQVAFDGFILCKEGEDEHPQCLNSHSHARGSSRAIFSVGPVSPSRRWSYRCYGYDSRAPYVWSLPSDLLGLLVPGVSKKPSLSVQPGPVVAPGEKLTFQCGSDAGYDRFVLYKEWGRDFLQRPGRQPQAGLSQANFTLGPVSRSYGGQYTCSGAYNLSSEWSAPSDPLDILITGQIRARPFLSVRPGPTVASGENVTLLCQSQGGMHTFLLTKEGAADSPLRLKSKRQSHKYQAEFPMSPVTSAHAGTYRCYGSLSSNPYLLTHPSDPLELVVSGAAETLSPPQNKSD
T18 sequence (Q8N423 other isoform, or with tags, fused parts or gaps): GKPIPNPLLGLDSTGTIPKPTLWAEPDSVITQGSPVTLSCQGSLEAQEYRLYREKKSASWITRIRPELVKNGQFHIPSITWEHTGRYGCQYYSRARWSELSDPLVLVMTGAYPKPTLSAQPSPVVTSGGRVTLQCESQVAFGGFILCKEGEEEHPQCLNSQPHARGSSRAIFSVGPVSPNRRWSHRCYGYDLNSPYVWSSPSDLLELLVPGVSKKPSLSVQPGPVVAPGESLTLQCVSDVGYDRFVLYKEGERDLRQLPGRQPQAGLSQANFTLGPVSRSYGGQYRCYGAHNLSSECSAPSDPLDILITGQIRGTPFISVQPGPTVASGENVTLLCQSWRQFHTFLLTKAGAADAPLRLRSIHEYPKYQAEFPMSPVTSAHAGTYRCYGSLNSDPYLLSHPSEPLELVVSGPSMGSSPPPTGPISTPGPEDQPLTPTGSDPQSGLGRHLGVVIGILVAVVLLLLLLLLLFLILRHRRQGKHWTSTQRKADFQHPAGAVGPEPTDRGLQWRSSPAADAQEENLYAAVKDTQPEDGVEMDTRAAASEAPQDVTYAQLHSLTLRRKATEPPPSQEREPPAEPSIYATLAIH
T15 sequence (Q8N149 other isoform, or with tags, fused parts or gaps): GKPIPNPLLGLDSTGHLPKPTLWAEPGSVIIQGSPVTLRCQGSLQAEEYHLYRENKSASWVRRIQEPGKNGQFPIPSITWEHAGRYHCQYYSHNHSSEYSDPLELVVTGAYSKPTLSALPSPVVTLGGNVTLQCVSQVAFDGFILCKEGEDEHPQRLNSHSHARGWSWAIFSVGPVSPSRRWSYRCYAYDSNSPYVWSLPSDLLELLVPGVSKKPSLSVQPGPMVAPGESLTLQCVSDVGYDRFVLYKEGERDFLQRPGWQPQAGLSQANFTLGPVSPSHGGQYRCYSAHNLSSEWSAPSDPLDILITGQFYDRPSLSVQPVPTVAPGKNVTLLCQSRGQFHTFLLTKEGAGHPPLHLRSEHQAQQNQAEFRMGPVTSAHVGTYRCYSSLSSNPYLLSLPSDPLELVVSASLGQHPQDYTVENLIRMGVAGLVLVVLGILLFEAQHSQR
T8 sequence (Q8NHL6 other isoform, or with tags, fused parts or gaps mutant): as the sequence (Q8NHL6 24-650) above, with E34A, R36A, Y76I, A82S, R84L counted along it
T23 sequence (Q8NHL6 other isoform, or with tags, fused parts or gaps limits assumed): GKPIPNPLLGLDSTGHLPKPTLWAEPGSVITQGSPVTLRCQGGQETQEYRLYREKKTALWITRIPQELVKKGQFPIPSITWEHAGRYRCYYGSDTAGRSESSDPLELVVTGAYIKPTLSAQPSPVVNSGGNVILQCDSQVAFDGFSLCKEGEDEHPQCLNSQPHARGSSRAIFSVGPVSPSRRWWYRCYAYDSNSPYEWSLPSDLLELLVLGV

Row | binding result [2] | binding result [3] | binding result [5] | binding result [7] | IC50 (read off the curve) [9] [µg/mL] | binding result [10] | EC50 [13] [µg/mL] | binding result [14] | EC50 [15] [µg/mL] | Kd [16] [nM] | koff [16] [s⁻¹] | CD137 expression on ILT2-positive primary NK cells [17] [fold] | CD137 expression on NK cells of urothelial cancer patients with HLA-A2-expressing B cells [17] [fold] | binding result [18] | binding result [19] | binding result [20] | binding result [21] | binding result [22] | binding result [23] | Binder | other results
1 | no binding | no binding | no binding | no binding | ~0.1 | no binding |  |  |  |  |  |  |  |  |  |  |  |  |  | 48F12 (antibody, human IgG1, V domains shown) VH: QVQLKESGPGLVAPSQSLSITCTVSGFSLTSYGVSWVRQPPGKGLEWLGIIWGDGSTNYHSALVSRLSISKDNSKSQVFLKLNSLQTDDTATYYCAKPNWDYYAMDYWGQGTSVTVSS VL: DIQMTQTTSSLSASLGDRVTISCRASQDISNYLNWYQQKVDGTVKLLISYTSRLHSGVPSRFSGSGSGTDYSLTISNLEQEDIATYFCQQGITLPLTFGAGTKLELK | Kd [1]: 0.2 nM; koff [1]: 0.0001 s⁻¹; kon [1]: 500000 M⁻¹ s⁻¹; binding result [4]: no binding; binding result [6]: no binding; binding result (ILT2 mutant 2 [8]): no binding
2 | no binding | no binding | no binding | no binding | ~0.1 | no binding | 0.09 | no binding | 0.36 | 1 | 0.00042 | 2 | > 2 | no binding | no binding | no binding | no binding | no binding | no binding | 12D12 (antibody, human IgG1, V domains shown) VH: QVQLQQPGAELVKPGASVRMSCKASGYTFTSYWVHWVKQRPGQGLEWIGVIDPSDSYTSYNQNFKGKATLTVDTSSKTAYIHLSSLTSEDSAVYFCARGERYDGDYFAMDYWGQGTSVTVSS VL: DIVMTQSPASLSVSVGETVTITCRASENIYSNLAWYQQKQGKSPQLLVYAATNLADGVPSRFSGSRSGTQYSLKINSLQSEDFGTYYCQHFWNTPRTFGGGTKLEIK | binding result (ILT2 mutant 2 [11]): no binding (tested: about 20 µg/ml); IC50 (read off the curve) [12]: ~0.2 µg/mL; EC50 (read off the curve) (ILT2 mutant 1): ~0.4 µg/mL; kon [16]: 430000 M⁻¹ s⁻¹; EC50 (read off the curve) [24]: ~0.5 µg/mL; binding result [25]: no binding
3 | no binding |  | no binding |  |  | no binding | 0.11 | no binding | 0.12 | 0.2 | 0.00011 | 2 | > 2 | no binding | no binding | no binding | no binding | no binding | no binding | 18E1 (antibody, human IgG1, V domains shown) VH: QVQLQQSGAELVKPGASVRLSCKASGYTFTAHTIHWVKQRSGQGLEWIGWLYPGSGSIKYNEKFKDKATLTADKSSSTVYMELSRLTSEDSAVYFCARHTNWDFDYWGQGTTLTVSS VL: NIVLTQSPASLAVSLGQRATISCKASQSVDYGGASYMNWYQQKPGQPPKLLIYAASNLESGIPARFSGSGSGTDLTLNIHPVEEEDAAMYYCQQSNEEPWTFGGGTKLEIK | binding result (ILT2 mutant 4-1): no binding (tested: about 20 µg/ml); binding result (Mutant D4-4): binds; binding result [26]: no binding; binding result [27]: no binding; binding result (ILT2 mutant 4-2): no binding (tested: about 20 µg/ml); EC50 (read off the curve) [28]: ~0.3 µg/mL; binding result (Mutant D4-1B): binds; binding result (ILT2 mutant 4-5): binds; binding result [29]: no binding

Reference: patent US20220025056A1 (INNATE PHARMA, published 2022)
